Reference: paper PMC8197658

T1: SALL4 ZFC4 (UniProt Q9UJQ4 864-929)
T1 sequence: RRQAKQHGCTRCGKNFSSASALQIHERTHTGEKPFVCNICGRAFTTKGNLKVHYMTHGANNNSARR

B1: ITC Mutant oligo 1 (dsDNA)
DNA 1: GAGTCGCTAATG
DNA 2: CATTAGCGACTC
B2: KDM3A EMSA Mutant oligo (dsDNA)
DNA 1: TCTTCTTTTAACCTTCAAAA
DNA 2: TTTTGAAGGTTAAAAGAAGA
B3: ITC Mutant oligo 2 (dsDNA)
DNA 1: GATAAACGCTTG
DNA 2: CAAGCGTTTATC
B4: KDM3A EMSA WT oligo (dsDNA)
DNA 1: TCTTCATTTATCCTTCAAAA
DNA 2: TTTTGAAGGATAAATGAAGA

Key:
SALL4 ZFC4 = target: T1, SALL4 ZFC4; assay: ITC
SALL4A (full-length) = SALL4A (full-length) (Homo sapiens, UniProt Q9UJQ4 1-1053); assay: EMSA
Chain of SALL4A (full-length) (Q9UJQ4 whole entry): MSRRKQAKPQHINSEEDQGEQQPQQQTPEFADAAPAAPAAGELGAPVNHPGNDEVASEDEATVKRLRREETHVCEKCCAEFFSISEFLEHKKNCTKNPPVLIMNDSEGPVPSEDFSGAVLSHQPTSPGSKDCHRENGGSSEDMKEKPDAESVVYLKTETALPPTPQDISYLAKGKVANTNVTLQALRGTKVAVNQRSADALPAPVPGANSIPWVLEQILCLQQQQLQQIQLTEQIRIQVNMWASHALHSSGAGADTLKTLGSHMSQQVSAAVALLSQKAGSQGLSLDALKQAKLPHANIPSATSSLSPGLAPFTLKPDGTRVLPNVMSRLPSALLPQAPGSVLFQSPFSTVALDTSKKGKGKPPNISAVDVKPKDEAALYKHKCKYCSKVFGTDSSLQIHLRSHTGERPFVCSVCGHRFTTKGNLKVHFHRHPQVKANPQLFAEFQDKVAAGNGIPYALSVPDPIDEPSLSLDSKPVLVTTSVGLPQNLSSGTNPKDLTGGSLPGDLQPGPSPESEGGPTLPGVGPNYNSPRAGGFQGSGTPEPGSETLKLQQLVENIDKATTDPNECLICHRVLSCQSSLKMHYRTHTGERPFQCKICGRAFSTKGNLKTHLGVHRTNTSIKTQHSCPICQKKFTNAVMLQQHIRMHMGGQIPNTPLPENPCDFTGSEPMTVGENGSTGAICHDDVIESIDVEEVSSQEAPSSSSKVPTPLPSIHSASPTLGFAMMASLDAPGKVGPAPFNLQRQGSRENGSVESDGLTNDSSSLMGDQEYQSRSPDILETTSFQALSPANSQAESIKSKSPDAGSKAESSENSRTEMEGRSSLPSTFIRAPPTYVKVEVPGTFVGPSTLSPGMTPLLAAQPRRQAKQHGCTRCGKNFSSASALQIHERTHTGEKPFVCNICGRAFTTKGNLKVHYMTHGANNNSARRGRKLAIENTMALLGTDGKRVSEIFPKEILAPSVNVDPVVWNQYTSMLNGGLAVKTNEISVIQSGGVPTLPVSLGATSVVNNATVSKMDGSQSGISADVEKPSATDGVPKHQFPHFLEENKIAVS

Binder | binding result (SALL4 ZFC4) | binding result (SALL4A (full-length))
B1 | no binding | 
B2 |  | no binding
B3 | no binding | 
B4 |  | binds
